The source of these data is US20250002562A1 (Scripps Research, published 2025).

B1: SKAI-DS7 scFv (scFv, V domains shown)
VH: EVQLLESGGGLVQTGGSLRLSCAASGFTFSDYAMSWVRQAPGKGLEWVSGIYHSGGNTYYADSVKGRFTISRDNSKNTLYLQMNSLRAEDTAVYYCARDAGPFDYWGQGTLVAV
VL: QSVLTQPPSASGTPGQRVTISCSGSSSNIGSNAVSWYQQLPGTAPKLLIYDNNHRPSGVPDRFSGSKSGTSASLAISGLRSEDEADYYCGSWDDSLNAYVFGGGTKLTVL
B2: SKAI-DS1 scFv (scFv, V domains shown)
VH: EVQLLESGGGLVQTGGSLRLSCAASGFTFSDYAMSWVRQAPGKGLEWVSWIYSNDGNKYYADSVKGRFTISRDNSKNTLYLQMNSLRAEDTAVYYCARFPVPSWRNTWSSYDAMDVWGQGTLVTV
VL: QSVLTQPPSASGTPGRRVTISCTGSSSNIGSNYVSWYQQLPGTAPKLLIYSDSNRPSGVPDRFSGSKSGTSASLAISGLRSEDEADYYCGTWDASLSGYVFGGGTKLTVL
B3: SKAI-DS64 (antibody, V domains shown)
VH: B1 VH with T14P, A33S, G55D, N57S, T58K, D99F, A100D, G101P, P102V, A113T
VL: B1 VL
notes: also called SKAI-DS64 human IgG antibody
B4: SKAI-DS1 (antibody, V domains shown)
VH: B2 VH
VL: B2 VL
notes: also called SKAI-DS1 human IgG antibody
B5: SKAI-DS3 (antibody, V domains shown)
VH: EVQLLESGGGLVQPGGSLRLSCAASGFTFSDYSMSWVRQAPGKGLEWVSAISSDSSSTYYADSVKGRFTISRDNSENTLYLQMNSLRAEDTAVYYCAKAILRCIPLGCYYADAMDVWGQGTLVTV
VL: B2 VL with R16Q, Y33D, S35T, S51A, N54K, T91A, A94Y, G98A
notes: also called SKAI-DS3 human IgG antibody
B6: SKAI-DS16 (antibody, V domains shown)
VH: EVQLLESGGGLVQPGGSLRLSCAASGFTFSDYSMSWVRQAPGKGLEWVSWIYPDNGNTYYADSVKGRFTISRDNSKNTLYLQMNSLRAEDTAVYYCAKPKTSFDYWGQGTLVTV
VL: B2 VL with R16Q, T23S, S35Y, S51D, D61G, A94Y, S97N
notes: also called SKAI-DS16 human IgG antibody
B7: SKAI-DS66 (antibody, V domains shown)
VH: B6 VH with S33A, W50A, D54G, N55G, N57S, K98R, P99N, K100L, T101F, S102G
VL: B1 VL with S23T, S35Y, N52D, N53S, H54N, N97S
notes: also called SKAI-DS66 human IgG antibody
B8: SKAI-DS15 (antibody, V domains shown)
VH: EVQLLESGGGLVQPGGSLRLSCAASGFTFSDYDMSWVRQAPGKGLEWVSMIYSGSSSKYYADSVKGRFTISRDNSKNTLYLQMNSLRAEDTAVYYCARVTGTCHSGSCYYSDAMDVWGQGTLVTV
VL: B2 VL with R16Q, T23S, Y33D, S35N, S51D, T91A, A94D
notes: also called SKAI-DS15 human IgG antibody

Residue numbers refer to the chain shown, from its start.

The target of one assay is T1, SARS-CoV-2-B.1.617.2 (Delta variant) RBD (SARS-CoV-2 B.1.617.2 (Delta variant), UniProt P0DTC2 319-541).
T1 construct: domain: RBD; also called Delta RBD; Delta antigen
Nature of the assay: ELISA of scFv from individual colonies on RBD antigens. For orientation: ELISA stands for enzyme-linked immunosorbent assay.
As to B1, the binding result is on record as “binds”.
Still for that read-out and setting: the entry for B2 is “binds”.

The target of the next assay is T1, SARS-CoV-2-B.1.617.2 (Delta variant) RBD. Nature of the assay: ELISA on RBD antigen, human IgG at 1 µg/mL, O.D. 450 nm.
As for B3, the binding result is recorded as “binds”.
B4: the binding result was “binds”.
The same measure, in the same setting: the entry for B5 is “no binding (tested: 1 µg/mL)”; for B6 it is “no binding (tested: 1 µg/mL)”; for B7 it is “binds”.
In the case of B8, the binding result was “no binding (tested: 1 µg/mL)”.

A further assay has as its target T2, Omicron (B.1.1.529) RBD antigen (Genscript) (SARS-CoV2 Omicron variant (B.1.1.529), UniProt P0DTC2 319-541).
T2 construct: domain: RBD; also called Omicron RBD; Omicron variant RBD
The assay is described as above.
In the case of B3, the binding result is on record as “no binding (tested: 1 µg/mL)”.
Still for that read-out and setting: the entry for B4 is “no binding (tested: 1 µg/mL)”; for B5 it is “no binding (tested: 1 µg/mL)”; for B6 it is “no binding (tested: 1 µg/mL)”.
On the same count and under the same terms, the entry for B7 is “no binding (tested: 1 µg/mL)”.
For B8, the binding result was “no binding (tested: 1 µg/mL)”.
